From US20260210971A1 (Pfizer, published 2026)
Residue numbers refer to the chain shown, from its start.

B1: 1D1 1.28 (antibody, human IgG1, kappa, V domains shown)
VH: QVQLVQSGAEVKKPGASVKVSCKASGYDFTYYGISWVRQAPGQGLEWMGWISTYNGNKHYARMLQGRVTMTTDTSTRTAYMELRSLRSDDTAVYYCARENYYGSGSYRGGMDVWGQGTTVTVSS
VL: EIVLTQSPATLSLSPGERATLSCRASQSVSSYLAWYQQKPGQAPRLLIYDASNRATGIPARFSGSGSGTDFTLTISSLEPEDFAVYYCQQRSNWPWTFGQGTKVEIKR
notes: Expressed as IgG1; also called 1D1 1.28-hIgG1-3m
B2: 1D1 Fab (Fab, V domains shown)
VH: B1 VH with D28S, K58T, H59N
VL: B1 VL
notes: Made from 1D1 IgG by papain; also called Fab of 1D1
B3: 1D1 1.32 (antibody, human IgG1, kappa, V domains shown)
VH: B1 VH with N57G, K58T, S106A, V113A
VL: B1 VL
notes: Expressed as IgG1
B4: 1D1 1.29 (antibody, human IgG1, kappa, V domains shown)
VH: B1 VH with N57G, K58T
VL: B1 VL
notes: Expressed as IgG1
B5: 1D1 1.33 (antibody, human IgG1, kappa, V domains shown)
VH: B1 VH with N57V, K58T, S106A, V113A
VL: B1 VL
notes: Expressed as IgG1; also called 1D1 1.33-hIgG1-3m
B6: 1D1 1.34 (antibody, human IgG1, kappa, V domains shown)
VH: B1 VH with N57K, K58T, L64H, S106A, V113A
VL: B1 VL
notes: Expressed as IgG1
B7: 1D1 1.30 (antibody, human IgG1, kappa, V domains shown)
VH: B1 VH with N57V, K58T
VL: B1 VL
notes: Expressed as IgG1; also called 1D1 1.30-hIgG1-3m
B8: anti-TL1A antibody 7D4 (antibody, human IgG1, kappa, V domains shown)
VH: QVQLVQSGAEVKKPGASVKVSCKASGYTFTSYGINWVRQAPGQGLEWMGWISTYNGNTNSAQKLQGRVTMTTDTSTSTAYMELRSLRSDDTAVYYCARAHSSSWFDAFDIWGQGTMVTVSS
VL: AIQLTQSPSSLSASVGDRVTITCRASQGISSALAWYQQKPGKAPKLLIYDASSLESGVPSRFSGSGSGTDFTLTISSLQPEDFATYYCQQFNSYPLTFGGGTKVEIKR
notes: Human IgG1-3m, kappa; also called 7D4-hIgG1-3m
B9: anti-TL1A antibody 26B11 (antibody, V domains shown)
VH: QVQLVESGGGVVQPGRSLRLSCAASGFTFSSFAMHWVRQAPGKGLEWVALIPFDGSSNYYADSVKGRFTISRDNSKNTLYLQMNSLRAEDTAVYYCARDRNYYGSGSFSFDAFDIWGQGTLVTVSS
VL: DIQMTQSPSSLSASVGDRVTITCRASQGISNWLAWYQQKPEKAPKSLIYAASSLQSGVPSRFSGSGSGTDFTLTISSLQPEDFATYYCQQYNSYPYTFGQGTKLEIKR
notes: also called 26B11-hIgG1-3m
B10: 1D1 D18 (antibody, V domains shown)
VH: B1 VH with D28S, K58T
VL: B1 VL
notes: IgG with triple mutant Fc as for 1D1 D37
B11: 1D1 D21 (antibody, V domains shown)
VH: B1 VH with D28S, N57K, K58T
VL: B1 VL
notes: as for B10
B12: 1D1 DH10 (antibody, V domains shown)
VH: B1 VH with D28S, K58T, H59N, S106A
VL: B1 VL
notes: as for B10
B13: 1D1 D25 (antibody, V domains shown)
VH: B1 VH with D28S, N57A, K58T
VL: B1 VL
notes: as for B10
B14: 1D1 DH9 (antibody, V domains shown)
VH: B1 VH with D28S, T53P, N57K, K58T
VL: B1 VL
notes: as for B10
B15: 1D1 D29 (antibody, V domains shown)
VH: B1 VH with D28S, T53S, K58T
VL: B1 VL
notes: as for B10
B16: 1D1 D28 (antibody, V domains shown)
VH: B1 VH with D28S, N57K, K58T, L64H
VL: B1 VL
notes: as for B10
B17: 1D1 D31 (antibody, V domains shown)
VH: B1 VH with D28S
VL: B1 VL
notes: as for B10
B18: 1D1 D5 (antibody, V domains shown)
VH: B1 VH with D28S, K58T, H59N, S106A, Y107F, V113G
VL: B1 VL
notes: as for B10
B19: 1D1 DH8 (antibody, V domains shown)
VH: B1 VH with D28S, T53A, K58T
VL: B1 VL
notes: as for B10

Each binder was assayed against T1, recombinant soluble human TL1A (human, UniProt O95150 71-251) (assay: KinExA, equilibrium in solution).
T1 construct: Homotrimer, expressed in HEK293 and purified over HitrapNTA; no tag is described; Used biotinylated in the HTRF assay and in flow cytometry; also called rsTL1A; hTL1A
T1 sequence: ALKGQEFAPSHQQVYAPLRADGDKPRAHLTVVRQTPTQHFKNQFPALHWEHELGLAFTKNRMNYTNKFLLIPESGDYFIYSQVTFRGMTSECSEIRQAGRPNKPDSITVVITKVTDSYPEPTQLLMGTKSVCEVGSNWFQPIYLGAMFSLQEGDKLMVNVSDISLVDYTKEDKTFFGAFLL
Description: This assay involves pre-incubating antibody: antigen mixtures in solution long enough to reach equilibrium before measuring the level of unbound antibody using a solid phase component. […] Beads were blocked for 1 hour with PBS plus 10 mg/ml bovine serum albumin (bovine serum albumin, Sigma) at room temperature before being diluted up to a total of 27 ml in PBS. […] For each titration series, a buffer sample and a sample of antibody alone were included. Each antibody: TL1A mixture was tumbled at room temperature for at least six hours to reach equilibrium and then each mixture was injected over the solid phase of TL1A-coated beads in the instrument flow cell. […] Beads were replenished between each sample. Binding signals of detected free antibody were converted to percentage of free, unbound antibody as measured by the antibody only sample and plotted versus each concentration of TL1A. For each antibody, the KD and ABC controlled curves were fit simultaneously using n-Curve Analysis software v3.1.4 to fit the curves to the ‘affinity, unknown ligand’ model and measure an equilibrium KD.
Solution-based kinetic exclusion assays (KinExA) were carried out as an orthogonal technique to measure equilibrium KD values.

Kd [pM]	Binder
2.52	B1
3000	B2
6.15	B3
19.4	B4
10.6	B5
1.16	B6
6.8	B7

These binders were tested against T2, recombinant soluble rat TL1A (rat, UniProt Q8K3Y7 76-252) (assay: SPR, IgG captured on anti-hIgG, TL1A injected).
T2 construct: also called rat rsTL1A
T2 sequence: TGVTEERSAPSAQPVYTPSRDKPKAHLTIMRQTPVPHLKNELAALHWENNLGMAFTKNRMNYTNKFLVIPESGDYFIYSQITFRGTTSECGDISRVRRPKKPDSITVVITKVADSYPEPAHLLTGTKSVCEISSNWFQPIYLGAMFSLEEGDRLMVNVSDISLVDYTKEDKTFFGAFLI
Excerpt: (§1) The antibodies were captured via directly immobilized anti-human IgG (GE Healthcare) onto a carboxymethylated dextran sensor chip surface (CM5) using a Biacore T100 or T200 instrument. Anti-human IgG was immobilized through amine coupling to densities of approximately 4,000-13,000 response units (RU). […] At the end of each cycle, the entire anti-hIgG surface was regenerated by a 30-second pulse of 3M MgCl₂ followed by two consecutive 15-second pulses of PBS-NET. […] All injections were performed at 25° C. at a collection rate of 10 Hz. All sensorgrams were double referenced by using both a control surface and buffer injections. Rate constants were determined by fitting the data to a 1:1 model in Biacore T100, T200 evaluation software v1.0, or BIAevaluation software v4.1.1 and the equation KD=Kd/kₐ.
(§2) At the highest cytokine concentrations, the dissociation phase was sometimes extended to 60 minutes to achieve at least a 5% decrease in binding signal.

Kd [pM]	koff [s⁻¹]	kon [M⁻¹ s⁻¹]	t1/2 [min]	Binder
5020	0.0029	580000	3.95	B3
5920	0.0024	410000	4.77	B6
41900	0.0098	240000	1.18	B7

These binders were tested against T1, recombinant soluble human TL1A (assay: SPR, IgG captured on anti-hIgG, TL1A injected; off rate too slow to measure).

Kd [pM]	Binder
< 100	B1
< 100	B3
< 100	B4
< 100	B5
< 100	B6
< 100	B7

Target: T3, recombinant soluble murine TL1A (mouse, UniProt Q5UBV8 75-252)
T3 construct: also called murine rsTL1A; mouse TL1A
T3 chain: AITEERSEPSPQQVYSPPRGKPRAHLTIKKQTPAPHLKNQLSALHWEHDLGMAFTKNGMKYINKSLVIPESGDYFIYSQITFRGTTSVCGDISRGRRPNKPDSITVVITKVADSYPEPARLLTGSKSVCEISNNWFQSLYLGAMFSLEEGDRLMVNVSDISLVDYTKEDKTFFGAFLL
Assay: SPR, IgG captured on anti-hIgG, TL1A injected
Excerpt: as §1, §2

Kd [pM]	koff [s⁻¹]	kon [M⁻¹ s⁻¹]	t1/2 [min]	Binder
~1530	0.00032	210000	36.1	B1
906	0.00023	260000	49.5	B3
2860	0.0007	260000	15.8	B4
1910	0.00029	160000	39	B5
1110	0.00028	250000	41.8	B6
5250	0.0007	140000	17.9	B7

The binders below were run against T1, recombinant soluble human TL1A (assay: cell-based or functional assay).

Caspase Assay, average IC50 [pM]	NFkB Assay, average IC50 [pM]	Binder
96.2	189	B1
61.5	180	B3
85	281	B4
146	200	B5
62.7	182	B6
103	370	B7

Target: T4, recombinant soluble cynomolgus monkey TL1A (cynomolgus monkey, UniProt O95150 72-251 (human entry))
T4 construct: also called cyno rsTL1A; cyno TL1A
T4 chain: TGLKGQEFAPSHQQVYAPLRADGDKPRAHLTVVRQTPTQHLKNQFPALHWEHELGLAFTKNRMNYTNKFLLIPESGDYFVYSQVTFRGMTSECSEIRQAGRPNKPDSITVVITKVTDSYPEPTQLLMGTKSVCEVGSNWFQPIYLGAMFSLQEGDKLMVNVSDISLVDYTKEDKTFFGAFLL
Assay: SPR, IgG captured on anti-hIgG, TL1A injected
Excerpt: (§3) To characterize the binding kinetics of the anti-TL1A antibodies to TL1A by surface plasmon resonance, each anti-TL1A antibody was captured via directly immobilized anti-human IgG (GE Healthcare) onto a carboxymethylated dextran sensor chip surface (CM5) using a Biacore T100 or T200 instrument. Anti-human IgG was immobilized through amine coupling to densities of approximately 4,000-13,000 response units (RU). […] At the end of each cycle, the entire anti-human IgG (hIgG) surface was regenerated by a 30-second pulse of 3M MgCl₂ followed by two consecutive 15-second pulses of PBS-NET. All injections were performed at 25° C. at a collection rate of 10 Hz. All sensorgrams were double referenced by using both a control surface and buffer injections. Rate constants were determined by fitting the data to a 1:1 model in Biacore T100, T200 evaluation software v1.0, or BIAevaluation software v4.1.1 and the equation KD=kd/kₐ.
(§4) The anti-TL1A antibodies were captured onto immobilized anti-human Fc on a CM5 sensor chip on a Biacore T100 instrument. […] Rate constants shown in the table were determined by fitting to a 1:1 Langmuir binding model in BiaEvaluation v4.1.1 (fit lines shown in red). Data shown are the average and standard deviation of at least 3 independent surfaces between 2 experiments.

Kd [pM]	koff [s⁻¹]	kon [M⁻¹ s⁻¹]	Binder
6900	0.0014	200000	B8
36000	0.006	200000	B9

These binders were tested against T1, recombinant soluble human TL1A (assay: SPR, IgG captured on anti-hIgG, TL1A injected).
Excerpt: as §3, §4

Kd [pM]	koff [s⁻¹]	kon [M⁻¹ s⁻¹]	Binder
900	0.0004	400000	B8
600	0.00011	170000	B9

Target: T1, recombinant soluble human TL1A
Assay: SPR, IgG captured on anti-hIgG, TL1A injected
Remark: another data set of the same source
Description: Biacore analysis was performed using T-200 biosensor, series S CM5 chips and approximately 4000 RU (response units) of an anti-human IgG (GE Healthcare), immobilized in 10 mM sodium acetate immobilization buffer at pH 5.0. Assay conditions were established to minimize the influence of mass transfer, avidity, and rebinding events, as described below. A blank immobilization was carried out on a separate flow cell for reference subtraction. The purified IgGs were diluted in running buffer (PBS, 300 mM sodium chloride, 3.2 mM ethylenediaminetetraacetic acid, 0.01% Tween20) and low levels (<30 RU) captured using a flow rate of 100 μl/min for 2 min, to reduce possible rebinding by the trimeric TL1A. […] Reference-subtracted sensorgrams for each concentration were analyzed using Biacore T-200 evaluation software (v1.0).

Kd [pM]	koff [s⁻¹]	kon [M⁻¹ s⁻¹]	Binder
662	0.000473	717000	B10
709	0.00052	745000	B11
588	0.0005	853000	B12
453	0.000387	868000	B13
840	0.000866	1.04e+06	B14
705	0.000712	1.01e+06	B15
527	0.000568	1.09e+06	B16
518	0.00042	822000	B17
625	0.000478	776000	B18
924	0.000896	977000	B19

Target: T4, recombinant soluble cynomolgus monkey …
Assay: SPR, IgG captured on anti-hIgG, TL1A injected
Remark: another data set of the same source

Kd [pM]	koff [s⁻¹]	kon [M⁻¹ s⁻¹]	t1/2 [min]	Binder
144	5.4e-05	380000	215	B1
66	2.9e-05	460000	398	B3
92	4.5e-05	490000	259	B4
107	3.7e-05	360000	309	B5
83	3.6e-05	440000	323	B6
142	6e-05	410000	199	B7
